This note sets out measurements from patent US20170029474A1.

Read-outs that look alike come from different tables or passages of the source.

Test [1] has as its target Recombinant HB-EGF (UniProt Q99075). In words: cell-based or functional assay.
For test [2] the target is unchanged. Put plainly: cell-based or functional assay. This is another data set of the same source.
The target in test [3] is C-terminal His-tagged HB-EGF lacking the heparin-binding domain (UniProt Q99075). In words: SPR, Biacore T200, His-tagged HB-EGF captured on NTA chip. Background: SPR reads the build-up and loss of mass on a sensor chip optically.
C-terminal His-tagged HB-EGF lacking the heparin-binding domain, sequence (Q99075 other isoform, or with tags, fused parts or gaps limits assumed): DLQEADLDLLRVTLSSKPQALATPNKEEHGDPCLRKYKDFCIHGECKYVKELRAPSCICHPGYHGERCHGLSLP

Recombinant HB-EGF, sequence (Q99075 63-148 limits assumed): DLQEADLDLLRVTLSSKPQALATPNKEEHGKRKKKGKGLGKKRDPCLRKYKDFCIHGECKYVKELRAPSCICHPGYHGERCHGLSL

As to CRM197 (from UniProt P00587 26-560), in test [1], the DER cell assay ID50 came out at 1.2 nM and the ID50 [nM], HB-EGF-dependent growth of DER cells stood at 1.2 nM. Also, in test [2], the DER cell assay ID50 is 1.02 nM and the DER cell assay Relative values (relative to CRM197) stood at 1. This substance also showed a Relative values (KA, against CRM197) (relative to CRM197) in test [3] of 1.

As for “MBP-R (D507N) (from UniProt P00587 405-560)”, in test [1], the ID50 [nM], HB-EGF-dependent growth of DER cells stood at 4.5 nM.

Consider “MBP-R (H520K) (from UniProt P00587 405-560)”, for which the ID50 [nM], HB-EGF-dependent growth of DER cells in test [1] is 6 nM.

With “MBP-R (V468T) (from UniProt P00587 405-560)”, the ID50 [nM], HB-EGF-dependent growth of DER cells in test [1] was determined as 6.2 nM.
